Source: the DeepSol protein solubility set

Assay: soluble on expression in E. coli; label from the status in PepcDB or PDB records

Sequence | soluble on expression in E. coli
MTDKTIAFSLLDLAPIPEGSSAREAFSHSLDLARLAEKRGYHRYWLAEHHNMTGIASAATSVLIGYLAANTTTLHLGSGGVMLPNHSPLVIAEQFGTLNTLYPGRIDLGLGRAPGSDQRTMMALRRHMSGDIDNFPRDVAELVDWFDARDPNPHVRPVPGYGEKIPVWLLGSSLYSAQLAAQLGLPFAFASHFAPDMLFQALHLYRSNFKPSARLEKPYAMVCINIIAADSNRDAEFLFTSMQQAFVKLRRGETGQLPPPIQNMDQFWSPSEQYGVQQALSMSLVGDKAKVRHGLQSILRETDADEIMVNGQIFDHQARLHSFELAMDVKEELLG | soluble
MAEKAENLPSSSAEASEEPSPQTGPNVNQKPSILVLGMAGSGKTTFVQRLTAFLHARKTPPYVINLDPAVSKVPYPVNVDIRDTVKYKEVMKEFGMGPNGAIMTCLNLMCTRFDKVIELINKRSSDFSVCLLDTPGQIEAFTWSASGSIITDSLASSHPTVVMYIVDSARATNPTTFMSNMLYACSILYRTKLPFIVVFNKADIVKPTFALKWMQDFERFDEALEDARSSYMNDLSRSLSLVLDEFYCGLKTVCVSSATGEGFEDVMTAIDESVEAYKKEYVPMYEKVLAEKKLLDEEERKKRDEETLKGKAVHDLNKVANPDEFLESELNSKIDRIHLGGVDEENEEDAELERS | not soluble
QKEQHSQLNQTKIAYEQRLLNDLEDMDDPLDLFLDYMIWISTSYIEVDSESGQEVLRSTMERCLIYIQDMETYRNDPRFLKIWIWYINLFLSNNFHESENTFKYMFNKGIGTKLSLFYEEFSKLLENAQFFLEAKVLLELGAENNCRPYNRLLRSLSNYEDRLREMNIVENQNSVPDSRERLKGRLIYRTAPFFIRKFLTSS | soluble
MARRNDHTREELVALTLDRVKQFLDTHSYHELSLRKVATMIGYVPSTLVNVFGNYNLLLLHVVAQTLDELAQEAQQAVKSTTYPKDALYQLAYCYHDFAKRNPYRWQLIFEHNMNGEMLPEWQAQRINNMTSMLEDLLKVIAPLRSEQEVLQASRVLWSGVHGITILSVDDKFFANEPIDGNALINNLLNHYLANW | not soluble
GPGSMYARYRTRSRFYKRPEKMLKAYNVSPNLLRLPKVKPGLLKGIYTDEKIDLRDRERLELVESIRHPKERDFYQDHTYHNQWIARDLESHQKIQIAGRYPYFSPDYEIKPWIWYPGDTVEVVSGEGAGQRGAIIAVVKYKNEILVQNVNVQDVVIPASETRPEQVVQREHPISVLRVRHVDPSTNQLCHLEIVKVRNKETGELEERRISLESGALLPIPAPEETVEAGDPLKDTAIQDADEETYDREKEMPLLVVRRLQAMENYFVDSLQKSHEYHKALQMRNAQDMQTFQKDVLVRATEKLAAAAAVFGHGAMAEAGSQAASVASESSQAGDAEEDAVKGTITVETVVAEVLKSEQRFRSDAAAPGVPGWWQNMIDAYVSVLEEEEATIEAEAAAQAQAAEADRRAEQLMADATAEVGQSMEEDGTMEGGDEDLDEQDGDLDEDSSRSDRSK | not soluble
MAHHHHHHMTILSLHGRNGADAQKWFESGLLPFPGGQKSFEMVSVMPALVYHHCMLYWAKLGCAALLQEGSVEMTGKAGSETLMFVVRNICCIQIAESPRCLPNWRLLDRVLDELLKRLDFVANCEDGVWSFASTTMRRMQCYLRSNIIRYLEVRDRPLEGQCGLLRYRGAFDCAINGVNSSGASGMGGCQTTDEVHVEVLSAETLRSAVQVMCGCDGVKVPCGDSSGGVKDGADALADLELEEFFCRYFLCSAPAAFDQPTKPTVRE | not soluble
MSNGNTDPVFDFEDALDQTEMAQLAVDELKKIPEVNTLFAERWLPAPFNLDDLAKLPEGTLGHVYAIEMKARGFDPYFYKKVPVVDDISYLKMLWRSTHDIYHVVAGFDTDGIGEIGLQAFVLAQTPIPISVMLVSFGMVMTSLYQPAKFQDLMAEIARGYSLGSHTPRKLIAQKWDQFWDVPVIEIRECLGMNTVKQRERALEHHHHHH | not soluble
MAHHHHHHMGQDQSRAKACQLGQAETGGTDRSVSAGSASAAPWEAPVSLAGVEGFQVVRLLPDSPAHKAGLIPFFDIVTALDKVLLESEGKAALSFFKSYVANHRDQPVCFTTFNLYSRTYRDVYCVPSDEWGGGGLLGCSIEWTRADACPERCVHVVDVLEGSPAACSTELQANRDYIIGMQTVQETLITLIKSQKDFYCRLEAWHEEQRWALERKQFFPNERVEVPHVLLFLVYNSESNTIEEVEVEMGTNPEAAVGISVATGLLHIIPSVATADLAVGASLPVMSKFASVGHSVVTPTRAQQQEHQLLQDVSLTPAVGAAPQPREQSQESTGSAQPLPSLPLPQEAHARCAVVDSPEVHTMTNPHEPPMNSCPQPCPPRPQLQQQLTEAALYSMPSLASFNVAPPPRHDAAGGTAAAAVEMGQKPFNPFAEEASPDYDVLEGAPLAHEGVMAAEHHLGQHAPTMEQPYSSSYPPLSSQSPPLSGSLPAQMNGSHNPATALPSYSAPPPPPQQLHVTTMPTFSSQRMPPPLQFPVFPGAAAAKRAPA | not soluble
MSLGDVEEWVNPDQSTSQPVTKAALVEKTVAMTEAGKFASFFQEGELETIQKLRVSGPLDASDIDAIRYQMPRLEVLDMKEVELIESDKTYGAEDHREHYKLKKGVITPKMLQCFSLLVTLVLPKDITEIEDYGIYGNKNLVSIEIPVTVKKVGAHVFKSCSSLQKVDLPNVETLGERVFESCGKLTKVTLSPDLQVIPDYAFQYCGSLADVPLPSSLVSIGVSAFRDCSSLVDVPLPSSLVSIGTGAFANCKSLTSVDMPNTVTTLENGTYQNCTNLKDVKLSDNLKRIGAENDHYSGSSFEGCQNLASIDIPASVSWINSFSFKNCVNLKTVTFHEGLQVIGGKSFQGCSSLVSVSIPKSVTSIGDESFEYCSSLNEMNLSQEGTPEINSSAFAYSGLSSITIPETVTSVGGGILNGCSRLTSIFWECNRDVPNIIDLNSTSCLLYLSHDVKCPSTWKNVIEPGGVAQTIVLKNEKRYLCPKAFTANKISYTREFTMKTIPGKAAGWQTIILPFSVQTITDKDGNRLAPFMAEGDGIWKRFWLRELQADGTYKDVTAIEANKPYLIAMPNAEEYASEYCISGNVTFEADNVSLGETPEIVPTDGGAYSMYGTYDWVTGTRKVYALNLDNWSDGSVYYEKGSVFVPSLRDVAPFECYLQNNNPSASTRGFIGIVGSHASTRAGEGHHHHHH | soluble
MYKVSHGLSMVHEDEMGVNAPMDHQRVISKLNVGLGKLFYYDKAISLEPLPETMLDEGRTSRYDGPPTPDLILYDKARDHIPVIIEVCHTRGLKGDLQKVVSLIEDFPYDILEGFVYNYRTEHWFRYRKGDNGIATETSFSEILQLDLNQFL | not soluble
MGSNGGGGGGGKQVLWEFHATGPRNISNPSWRDLIRSSWTDPNYRRIAVSCFVQAAYLLELDRQEKRNGESALAPNWWKPFKYKLVRPLIDSRDGSIYGVLLEWDQLAALSDLIVLRPNGAPKVVLAIRGTVLKQSTVVRDLEDDFRFFTMESLRGSVRFTGALEALKSAIDKRGSNNVCIAGHSLGAGFALQVGKTLAQDGIFVECHLFNPPSVSLGMGLRKLQEKAGKVLKRYVSGSSSNATELSHPTEDGGAASEIGEEKLIKEVKRWVPNLYINSCDYICCFYADRSGVATVTAEKHDGHSGTHSKLFVIAKGPKKFLEAHGLQQWWSDDYELQLAVHDSKLMYRHLKSLYVNES | soluble
MDNQISVPPALTGNYAFFFDLDGTLADIQPHPDQVVIPDSTLQALNALAQQQGGAVALISGRSMAELDALTHPWRLPLAGVHGAERRDINGKTYIVSLPTALRDEIAAELTSALEALPGCELESKEMAFALHYRQAPQQQSAVLELAQRIVQRYPLLALQLGKCVVEIKPRGVNKGEAITAFMQEAPFAGREPVFVGDDLTDEAGFSVVNQLQGMSVKVGAGETQAHWRLADAAAVRTWLQHLAYDAQTERRDDHESFSRSL | not soluble
MTVDDIMVPRSEIIGIDINDDWKSILRQLSHSPHGRIVLYRDSLDDAISMLRVREAWRLMSEKKEFTKETMLRAADEIYFVPEGTPLSTQLVKFQRNKKKVGLVVNEYGDIQGLVTVEDILEEIVGDFTTSMSPTLAEEVTPQNDGSVIIDGTANVREINKAFNWHLPEDDARTVNGVILEALEEIPVAGTRVRIGEYDIDILDVQDNMIKQVKVFPVKPLRESVAELEHHHHHH | soluble
